Eight substances from patent publication US20240301076A1 can be followed below.

In this test the target is human CXCR2 (human) (UniProt P25025). Kind of test: cell-based or functional assay.
human CXCR2 (human), sequence (P25025 whole entry): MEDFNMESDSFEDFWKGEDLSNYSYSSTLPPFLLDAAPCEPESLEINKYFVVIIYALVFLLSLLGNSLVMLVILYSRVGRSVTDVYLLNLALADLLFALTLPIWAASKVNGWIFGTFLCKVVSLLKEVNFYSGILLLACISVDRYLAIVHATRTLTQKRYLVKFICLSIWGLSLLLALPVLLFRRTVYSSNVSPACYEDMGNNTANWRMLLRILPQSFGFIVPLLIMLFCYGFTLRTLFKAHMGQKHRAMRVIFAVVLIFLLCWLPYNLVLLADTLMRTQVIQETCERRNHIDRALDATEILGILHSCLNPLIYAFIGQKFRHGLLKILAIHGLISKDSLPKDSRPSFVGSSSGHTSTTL

human CXCL8, sequence (P10145 28-99 limits assumed): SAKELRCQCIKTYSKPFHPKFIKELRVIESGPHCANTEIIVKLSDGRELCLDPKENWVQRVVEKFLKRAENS
human CXCL3, sequence (P19876 35-107 limits assumed): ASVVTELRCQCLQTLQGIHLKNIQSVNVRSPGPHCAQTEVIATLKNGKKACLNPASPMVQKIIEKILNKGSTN
human CXCL6, sequence (P80162 38-114 limits assumed): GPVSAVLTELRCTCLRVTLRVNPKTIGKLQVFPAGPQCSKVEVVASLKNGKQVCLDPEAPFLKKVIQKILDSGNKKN
human CXCL2, sequence (P19875 35-107 limits assumed): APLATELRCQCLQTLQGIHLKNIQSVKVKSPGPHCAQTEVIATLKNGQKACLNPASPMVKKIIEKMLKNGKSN
human CXCL1, sequence (P09341 35-107 limits assumed): as the sequence (P19875 35-107 limits assumed) above, with P2S, L3V, L20P, K27N, Q48R, M58I, K68N, N69S, G70D counted along it
human CXCL5, sequence (P42830 37-114 limits assumed): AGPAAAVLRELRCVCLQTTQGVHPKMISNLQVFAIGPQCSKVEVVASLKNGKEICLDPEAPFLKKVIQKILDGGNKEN

With “human CXCL6 (from UniProt P80162 38-114) (ligand)”, the EC50 mean, Tango assay worked out at 9.4 nM and the EC50 mean, calcium flux assay was determined as 28.9 nM.

In the case of “human CXCL3 (from UniProt P19876 35-107) (ligand)”, the EC50 mean, Tango assay is 11.9 nM and the EC50 mean, calcium flux assay stood at 12.2 nM.

As for “human CXCL1 (from UniProt P09341 35-107) (ligand)”, the EC50 mean, Tango assay was determined as 2.3 nM and the EC50 mean, calcium flux assay stood at 2.62 nM.

“Antagonist 4 (anti-CXCR2 antibody clone 6C6, BD Biosciences 555932)”: the CXCL1 IC50, calcium flux was determined as 1.29 nM; the CXCL1 IC50, β-arrestin recruitment amounted to 1.47 nM; the CXCL1 Maximal Inhibition %, calcium flux is 93%; the CXCL1 Maximal Inhibition %, β-arrestin recruitment was determined as 96%. The CXCL5 IC50, β-arrestin recruitment came to 0.75 nM; the CXCL5 Maximal Inhibition %, β-arrestin recruitment stood at 99%; the CXCL8 IC50, β-arrestin recruitment was 1.01 nM; the CXCL8 Maximal Inhibition %, calcium flux worked out at 1%. For the same substance, the CXCL8 Maximal Inhibition %, β-arrestin recruitment worked out at 94%.

As to “human CXCL5 (from UniProt P42830 37-114) (ligand)”, the EC50 mean, Tango assay is 97.7 nM and the EC50 mean, calcium flux assay worked out at 39.2 nM.

For “Antagonist 3 (anti-CXCR2 antibody clone 48311, R&D systems MAB331-500)”, the CXCL1 IC50, calcium flux turned out to be 30.7 nM; the CXCL1 IC50, β-arrestin recruitment is 14.8 nM; the CXCL1 Maximal Inhibition %, calcium flux was 37%; the CXCL1 Maximal Inhibition %, β-arrestin recruitment came out at 85%. The CXCL5 IC50, β-arrestin recruitment was 8.12 nM; the CXCL5 Maximal Inhibition %, β-arrestin recruitment was determined as 96%; the CXCL8 Maximal Inhibition %, calcium flux was found to be 18%; the CXCL8 Maximal Inhibition %, β-arrestin recruitment came to 82%.

On to “human CXCL2 (from UniProt P19875 35-107) (ligand)”, for which the EC50 mean, Tango assay is 33.3 nM and the EC50 mean, calcium flux assay is 37 nM.

Turning to “human CXCL8 (from UniProt P10145 28-99) (ligand)”, the EC50 mean, Tango assay was 2.2 nM and the EC50 mean, calcium flux assay turned out to be 3.2 nM.
